Patent publication US20130251703A1 (Novartis, published 2013)
Substitutions are numbered along the chain they refer to.

Assays:
[1] = molecular target: T1, human HER3 endogenously expressed on human cancer cells (SK-Br-3, BT-474, MCF7) (human, UniProt P21860 20-1342); assay: cell-based or functional assay
[2] = molecular target: T1, human HER3 endogenously expressed on …; assay: cell-based or functional assay; remark: listed apart in the source
[3] = molecular target: T2, Hu HER3: CD33-[Human HER3, residues 20-640]-TAG (human, UniProt P21860 20-640); assay: solution equilibrium titration (SET), IgG, ECL read-out
T2 construct: also called hu HER3-Tag; HER3-Tag; not shown: C-terminal TAG (e.g. FLAG TAG)

[4] = molecular target: T1, human HER3 endogenously expressed on …; assay: cell-based or functional assay; remark: listed apart in the source

B1: MOR13657 (antibody, human IgG1, lambda, V domains shown)
VH: QVQLVQSGAEVKKPGASVKVSCKASGYTFTSYDIHWVRQAPGQGLEWMGRIDPYSGNTNYAQKFQGRVTMTRDTSISTAYMELSRLRSEDTAVYYCARGSFYTRDSYFDVWGQGTLVTVSS
VL: DIALTQPASVSGSPGQSITISCTGTSSDVGTYNQVSWYQQHPGKAPKLMIYGVSKRPSGVSNRFSGSKSGNTASLTISGLQAEDEADYYCSARDGWSEYVFGGGTKLTVLG
notes: Tested as IgG
BT-474 pAkt % inhibition [1]: 53%
BT-474 pAkt IC50 [1]: 586 pM
MCF7 pAkt % inhibition [1]: 75%
MCF7 pAkt IC50 [1]: 385 pM
SK-Br-3 pAkt % inhibition [1]: 91%
SK-Br-3 pAkt IC50 [1]: 33 pM
BT-474 proliferation % inhibition [2]: 30%
BT-474 proliferation IC50 [2]: 473 pM
SK-Br-3 proliferation % inhibition [2]: 39%
SK-Br-3 proliferation IC50 [2]: 179 pM
Kd [3]: 87 pM
BT474 pHER3 % inhibition [4]: 63%
BT474 pHER3 IC50 [4]: 372 pM
MCF7 pHER3 % inhibition [4]: 75%
MCF7 pHER3 IC50 [4]: 283 pM
SK-Br-3 pHER3 % inhibition [4]: 71%
SK-Br-3 pHER3 IC50 [4]: 142 pM

B2: MOR12920 (antibody, human IgG1, lambda, V domains shown)
VH: B1 VH with S31G, D33Y, I34M, R50D, D52E, S55H, N57K, T58P, N59L
VL: B1 VL with K44N, A92S, G95L, W96I, S97G, E98H
MCF7 proliferation % inhibition [2]: 22%
MCF7 proliferation IC50 [2]: 1920 pM
SK-Br-3 proliferation % inhibition [2]: 32%
SK-Br-3 proliferation IC50 [2]: 2910 pM
BT474 pHER3 % inhibition [4]: 57%
BT474 pHER3 IC50 [4]: 2020 pM
MCF7 pHER3 % inhibition [4]: 66%
MCF7 pHER3 IC50 [4]: 3070 pM
SK-Br-3 pHER3 % inhibition [4]: 57%
SK-Br-3 pHER3 IC50 [4]: 851 pM

B3: MOR12922 (antibody, human IgG1, lambda, V domains shown)
VH: B1 VH with S31G, D33Y, I34M, R50V, N57W, N59E
VL: B1 VL with A92S, G95L, W96I, S97G, E98H
MCF7 proliferation % inhibition [2]: 27%
MCF7 proliferation IC50 [2]: 467 pM
SK-Br-3 proliferation % inhibition [2]: 36%
SK-Br-3 proliferation IC50 [2]: 709 pM
BT474 pHER3 % inhibition [4]: 58%
BT474 pHER3 IC50 [4]: 702 pM
MCF7 pHER3 % inhibition [4]: 62%
MCF7 pHER3 IC50 [4]: 788 pM
SK-Br-3 pHER3 % inhibition [4]: 64%
SK-Br-3 pHER3 IC50 [4]: 81 pM

B4: MOR13658 (antibody, human IgG1, lambda, V domains shown)
VH: B1 VH
VL: B1 VL with S91A, A92S, R93A, G95H, W96S, S97Y, E98H, Y99T
notes: Tested as IgG
BT-474 pAkt % inhibition [1]: 56%
BT-474 pAkt IC50 [1]: 461 pM
MCF7 pAkt % inhibition [1]: 81%
MCF7 pAkt IC50 [1]: 341 pM
SK-Br-3 pAkt % inhibition [1]: 92%
SK-Br-3 pAkt IC50 [1]: 172 pM
BT-474 proliferation % inhibition [2]: 34%
BT-474 proliferation IC50 [2]: 423 pM
MCF7 proliferation % inhibition [2]: 49%
MCF7 proliferation IC50 [2]: 174 pM
SK-Br-3 proliferation % inhibition [2]: 42%
SK-Br-3 proliferation IC50 [2]: 191 pM
Kd [3]: 27 pM
BT474 pHER3 % inhibition [4]: 67%
BT474 pHER3 IC50 [4]: 571 pM
MCF7 pHER3 % inhibition [4]: 83%
MCF7 pHER3 IC50 [4]: 459 pM
SK-Br-3 pHER3 % inhibition [4]: 74%
SK-Br-3 pHER3 IC50 [4]: 347 pM
